Test results reported in article PMC12302720 (The Journal of Biological Chemistry, 2025).
Changes are numbered by the printed parent chain.

How the values were obtained:
[1] = target: T1, extracellular domain of cynomolgus CD47 (CyCD47 ECD) (cynomolgus); assay: ELISA
T1 chain: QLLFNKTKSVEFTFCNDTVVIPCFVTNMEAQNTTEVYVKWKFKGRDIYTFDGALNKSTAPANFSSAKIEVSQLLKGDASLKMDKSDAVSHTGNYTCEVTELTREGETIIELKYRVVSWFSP

[2] = target: T2, extracellular domain of human CD47 (HuCD47 ECD) (human, UniProt Q08722); assay: ELISA; plates coated with 1 ug/ml HuCD47 ECD or CyCD47 ECD in 0.1 M PBS; serially diluted antibodies, 37 °C, 2 h; bound antibody detected with anti-human Fc HRP; conditions: both partners purified
T2 construct: human CD47 extracellular domain, amino acids Gln1-Pro121; source: bought: Acro Biosystems; not shown: His6, C-terminal, kept

[3] = target: T3, extracellular domain of cynomolgus CD47 (CyCD47 ECD) (Macaca fascicularis, UniProt A0A2K5X4I2); assay: BLI; Octet Red96; 5 ug/ml antibody held on anti-human IgG-Fc biosensors; 2-fold dilutions of HuCD47 ECD or CyCD47 ECD in 1 x PBS, 0.1% BSA, 0.02% Tween-20; 1:1 Langmuir global fit; apparent Kd; conditions: both partners purified
T3 construct: cynomolgus CD47 extracellular domain; source: bought: Acro Biosystems

[4] = target: T2, extracellular domain of human CD47 …; assay: as above; conditions: both partners purified

T3 sequence (A0A2K5X4I2 entry or part of it): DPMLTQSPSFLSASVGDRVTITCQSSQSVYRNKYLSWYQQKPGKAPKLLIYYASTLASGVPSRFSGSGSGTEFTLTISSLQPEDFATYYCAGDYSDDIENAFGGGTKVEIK

B1: Hu5F9-G4, humanized mouse anti-human CD47 antibody (antibody, V domains shown)
VH: QVQLVQSGAEVKKPGASVKVSCKASGYTFTNYNMHWVRQAPGQRLEWMGTIYPGNDDTSYNQKFKDRVTITADTSASTAYMELSSLRSEDTAVYYCARGGYRAMDYWGQGTLVTVSS
VL: DIVMTQSPLSLPVTPGEPASISCRSSQSIVYSNGNTYLGWYLQKPGQSPQLLIYKVSNRFSGVPDRFSGSGSGTDFTLKISRVEAEDVGVYYCFQGSHVPYTFGQGTKLEIK
EC50 [1]: 0.04 µg/mL

B2: H3L2, humanized variant of 1C8 (antibody, V domains shown)
VH: QSVKESGGGLFQPGGSLRLSCSVSGFSLSSYAISWVRQAPGKGLEYIGYISSIGDPYYADWVKGRFTISRDSSTVYLQMTSLRAEDTAVYFCARSYPGNGDLGRLDIWGQGTTVTVSS
VL: DPQLTQSPSFVSASVGDRVTITCRSSQSVYRNKYLSWYQQKPGKAPKLLIYYASTLASGVPSRFSGSGSGTEFTLTISSVQPEDAATYYCAGDYSDDIENAFGQGTKVEIK
binding result [2]: binds

B3: H4L2, humanized variant of 1C8 (antibody, V domains shown)
VH: QSVKESGGGLFQPGGSLRLSCSVSGFSLSSYAISWVRQAPGKGLEYIGYISSIGDPYYADWVKGRFTISRDNSKNTVYLQMTSLRAEDTAVYFCARSYPGNGDLGRLDIWGQGTTVTVSS
VL: B2 VL
binding result [2]: binds

B4: H4L3, humanized variant of 1C8 (antibody, V domains shown)
VH: B3 VH
VL: B2 VL with Q3M, V11L, R24Q, V80L, A85F, Q104G
binding result [3]: binds
fold lower binding affinity than 1C8 [4]: 3 fold
